Target: the molecule itself
Assay: cryo-EM structure; purified Kv3.1a, 20 uM, in 20 mM HEPES pH 7.5, 100 mM NaCl, 50 mM KCl, 0.04% digitonin; apo, with 1 mM EDTA or with 400 uM ZnCl2; subunits within the tetrameric channel

B1: human Kv3.1a channel (full-length human Kv3.1, isoform A) (natural protein, UniProt P48547 1-511, looked up)
chain: MGQGDESERIVINVGGTRHQTYRSTLRTLPGTRLAWLAEPDAHSHFDYDPRADEFFFDRHPGVFAHILNYYRTGKLHCPADVCGPLYEEELAFWGIDETDVEPCCWMTYRQHRDAEEALDSFGGAPLDNSADDADADGPGDSGDGEDELEMTKRLALSDSPDGRPGGFWRRWQPRIWALFEDPYSSRYARYVAFASLFFILVSITTFCLETHERFNPIVNKTEIENVRNGTQVRYYREAETEAFLTYIEGVCVVWFTFEFLMRVIFCPNKVEFIKNSLNIIDFVAILPFYLEVGLSGLSSKAAKDVLGFLRVVRFVRILRIFKLTRHFVGLRVLGHTLRASTNEFLLLIIFLALGVLIFATMIYYAERIGAQPNDPSASEHTHFKNIPIGFWWAVVTMTTLGYGDMYPQTWSGMLVGALCALAGVLTIAMPVPVIVNNFGMYYSLAMAKQKLPKKKKKHIPRPPQLGSPNYCKSVVNSPHHSTQSDTCPLAQEEILEINRAGRKPLRGMSI
notes: Voltage-gated potassium channel Kv3.1, human, shorter splice variant Kv3.1a (isoform A, α-isoform), full length, cloned from the mammalian gene collection; Homotetramer in the cryo-EM structures; the longer Kv3.1b was not used; also called shorter α-isoform of Kv3.1; KCNC1 gene product; not shown: Strep-II, C-terminal, cleaved; His10, C-terminal, cleaved; GFP, C-terminal, cleaved
- stoichiometry N: 4

Reference: PMC9287412, “Cryo-EM structure of the human Kv3.1 channel reveals gating control by the cytoplasmic T1 domain” (Nature Communications, 2022)
